Source: patent US20130123192A1 (RESEARCH FOUNDATION OF STATE UNIVERSITY OF NEW YORK, published 2013)
Where no end group is shown, it is not given here.

How the values were obtained:
[1] = molecular target: T1, Membrane type 1 matrix metalloproteinase (MT1-MMP) (Homo sapiens, UniProt P50281 112-582); assay: flow cytometry on cells expressing MT1-MMP
[2] = molecular target: T1, Membrane type 1 matrix …; assay: cell-based or functional assay

Row | Binder | binding result [1] | IC50, 3D invasion assay (human MDA-MB-231 breast cancer cell invasion) [2] [nM]
1 | GYPMP [IS4-5 peptide (GYPMP)] | – | 1500
2 | VMDGYPMP [IS4-8 peptide (VMDGYPMP)] | – | 1500

Results, then the binder that gave them:

Row | binding result [1] | IC50, 3D invasion assay (human MDA-MB-231 breast cancer cell invasion) [2] [nM] | Binder
3 | binds | – | GYPMP (also: biotinylated (site not given here), also called biotinylated IS4-5 peptides) [biotinylated IS4-5 peptide]
4 | – | 10000 | GYPKSALR [IVS4-8 peptide (GYPKSALR)]
